The data set concerns the molecule itself. As to the kind of experiment: SEC; elution profiles of proSP-C BRICHOS WT and T187R.

B1: proSP-C BRICHOS WT (domain or fragment, human, UniProt P11686 59-197, looked up)
chain: HMSQKHTEMVLEMSIGAPEAQQRLALSEHLVTTATFSIGSTGLVVYDYQQLLIAYKPAPGTCCYIMKIAPESIPSLEALTRKVHNFQMECSLQAKPAVPTSKLGQAEGRDAGSAPSGGDPAFLGMAVSTLCGEVPLYYI
notes: human proSP-C (surfactant protein C precursor), BRICHOS domain, residues 59-197 of UniProt P11686; Mainly trimeric; The mutant's mass of 18328 Da is larger than residues 59-197 alone would give, so the construct probably carries extra residues (surmise); also called proSP-C BRICHOS domain; WT proSP-C BRICHOS domain
For B1, the binding result is recorded as “binds”.

These data come from article PMC8028046 (Biochemistry, 2021).
